{"source": "patent US20220089574A1", "about": "“CXCR4 gamete molecular structure and method thereof” (priority 2020, published 2022)", "assay": "in vivo", "set-up": "species or system SCID mice", "details": "SCID, mouse, iv, total radioactivity, accumulation in the tumor", "procedure": "Embodiment 3: Radionuclide Labeled D-L2(-B)-L1-A is Used for Animal In Vivo imaging PC-3 human […] adenocarcinoma cells were inoculated into the forelimbs of SCID mice at 4×10^6, and about 3 weeks after inoculation, the radionuclide In-111 labeled D-L2(-B)-L1-A was used to adjust with injection water, and 469-527 μCi of radioactive drugs were intravenously injected into the tail vein, and nano SPECT/CT imaging was performed after administration at 1, 4, 24, 48, 72, and 96 hours, respectively. Nano SPECT/CT was used to track the distribution of radiopharmaceuticals in the animal body at each of the time points after administration, and analysis software was used to enter the image into the semi-definite image to obtain the SPECT value from the test substance with known activity at each of the time points. The linear ratio formula was derived between the SPECT calculated value and the actual activity, and the SPECT calculated value was then used at each target organ circled area to obtain the live/volume of each target organ with interpolation or extrapolation linear formula.\nFor performing the calculation we assume that every 1 mL of injection dosage is 1 g, and the circled area in the mouse body is 1 g per 1 cm^3. Furthermore, since the activity volume of the administered injection and the weight of the experimental mouse are known, each gram of In-111-D-L2(-B)-L1-A's biological distribution ratio (% ID/g) in each organ can be deduced, and will focus on organ tumor, liver, kidney and muscle into the distribution comparison and obtain ratio, as shown in FIG. 10.", "note": "Square brackets hold non-standard residues; d marks the D form. Side chains are listed from the residue outwards. Peptide text beside a SMILES is read from it. * marks the point of attachment. DOTA = O=C(O)CN1CCN(CC(=O)O)CCN(CC(=O)*)CCN(CC(=O)O)CC1; dTyr(3-I) = N[C@H](Cc1ccc(O)c(I)c1)C(=O)O; 2Nal = N[C@@H](Cc1ccc2ccccc2c1)C(=O)O; dNMeOrn = CN[C@H](CCCN)C(=O)O; 4Amb = NCc1ccc(C(=O)O)cc1", "data": [{"smiles": "CN1C(=O)[C@@H](Cc2ccc(O)c(I)c2)NC(=O)CNC(=O)[C@H](Cc2ccc3ccccc3c2)NC(=O)[C@H](CCCNC(=N)N)NC(=O)[C@H]1CCCNC(=O)c1ccc(CNC(=O)CN2CCN(CC(=O)O)CCN(CC(=O)O)CCN(CC(=O)O)CC2)cc1", "note": "[In-111-pentixather, metal not drawn] (cyclo([dTyr(3-I)][dNMeOrn]([4Amb-DOTA])R[2Nal]G))", "values": [{"measurement": "tissue uptake at 1 h", "value": 3.24, "unit": "%ID/g"}, {"measurement": "tissue uptake at 4 h", "value": 1.54, "unit": "%ID/g"}, {"measurement": "tissue uptake at 48 h", "value": 0.5, "unit": "%ID/g"}, {"measurement": "tissue uptake at 72 h", "value": 0.24, "unit": "%ID/g"}, {"measurement": "tissue uptake at 96 h", "value": 0.25, "unit": "%ID/g"}]}, {"smiles": "Cc1ccc(CCCC(=O)NCCCC[C@H](NC(=O)CN2CCN(CC(=O)O)CCN(CC(=O)O)CCN(CC(=O)O)CC2)C(=O)NCc2ccc(C(=O)NCCC[C@@H]3C(=O)N[C@@H](CCCNC(=N)N)C(=O)N[C@@H](Cc4ccc5ccccc5c4)C(=O)NCC(=O)N[C@H](Cc4ccc(O)c(I)c4)C(=O)N3C)cc2)cc1", "note": "(111In complex, metal not drawn) [I-01(-I-01)-I-01]", "values": [{"measurement": "tissue uptake at 1 h", "value": 5.47, "unit": "%ID/g"}, {"measurement": "tissue uptake at 24 h", "value": "> 1", "unit": "%ID/g"}]}, {"smiles": "Cc1ccc(CCCC(=O)NCCCC[C@H](NC(=O)CN2CCN(CC(=O)O)CCN(CC(=O)O)CCN(CC(=O)O)CC2)C(=O)NCCCCCC(=O)NCCC[C@@H]2C(=O)N[C@@H](CCCNC(=N)N)C(=O)N[C@@H](Cc3ccc4ccccc4c3)C(=O)NCC(=O)N[C@H](Cc3ccc(O)c(I)c3)C(=O)N2C)cc1", "note": "(111In complex, metal not drawn) [I-01(-I-01)-I-17]", "values": [{"measurement": "tissue uptake at 1 h", "value": 7.87, "unit": "%ID/g"}, {"measurement": "tissue uptake at 24 h", "value": "> 1", "unit": "%ID/g"}]}]}
